Changes are numbered by the printed parent chain. Numbers in names are those of the source. Values belong to the binder of their own block, whether it stands above or below them.
Tests used:
human FcγRIIb [1] = target: T1, human FcγRIIb (human, UniProt P31994 43-217, limits assumed); assay: ratio of this variant's SPR KD for FcγRIIaR to its KD for FcγRIIb
T1 construct: also called FcγIIB; hFcgRIIb
T1 sequence: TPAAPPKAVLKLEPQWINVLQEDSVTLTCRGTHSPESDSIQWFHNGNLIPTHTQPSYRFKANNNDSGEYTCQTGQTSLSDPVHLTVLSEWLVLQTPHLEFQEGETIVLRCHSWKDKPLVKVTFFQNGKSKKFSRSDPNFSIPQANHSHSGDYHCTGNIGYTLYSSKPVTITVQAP
From the text: (§1) Furthermore, KD(IIaR)/KD(IIb) and KD(IIaH)/KD(IIb) in the table respectively represent the value obtained by dividing the KD value of each variant for FcγRIIaR by the KD value of each variant for FcγRIIb, and the value obtained by dividing the KD value of each variant for FcγRIIaH by the KD value of each variant for FcγRIIb.

human FcγRIIa type H = target: T2, human FcγRIIa type H (human, UniProt P12318 36-217); assay: SPR (Biacore), captured antibody, FcγR as analyte, 25 C
T2 construct: also called FcγRIIaH; FcγRIIa(H)
T2 sequence: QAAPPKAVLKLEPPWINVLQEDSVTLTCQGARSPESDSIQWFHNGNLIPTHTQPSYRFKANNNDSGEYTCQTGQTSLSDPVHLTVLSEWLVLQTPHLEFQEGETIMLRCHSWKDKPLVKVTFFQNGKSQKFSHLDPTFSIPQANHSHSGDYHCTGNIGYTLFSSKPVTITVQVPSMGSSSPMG
From the text: as §1

human FcγRIIb [2] = target: T1, human FcγRIIb; assay: SPR KD for FcγRIIb of parent IL6R-B3/IL6R-L divided by that of this variant
From the text: as §1

human FcγRIIb [3] = target: T1, human FcγRIIb; assay: ratio of this variant's SPR KD for FcγRIIaH to its KD for FcγRIIb
From the text: as §1

human FcγRIa = target: T3, human FcγRIa (human, UniProt P12314 16-292, limits assumed); assay: SPR (Biacore), antibody captured on the chip, FcγR as analyte
T3 construct: also called CD64

human FcγRIIb [4] = target: T4, human FcγRIIb (human, UniProt P31994 43-217); assay: as above
T4 construct: also called FcγIIB
T4 sequence: T1 sequence

[5] = target: T5, human FcγRIIa type H (allotype H131) (human, UniProt P12318 36-217); assay: as above
T5 construct: also called FcγRIIaH; FcγRIIa(H)
T5 sequence: T2 sequence

[6] = target: T6, human FcγRIIa type R (allotype R131) (human, UniProt P12318 36-217); assay: as above
T6 construct: also called FcγRIIaR; FcγRIIa(R)
T6 chain: T2 sequence with H133R

human FcγRIIb [7] = target: T4, human FcγRIIb; assay: SPR (Biacore); KD of parent IL6R-B3/IL6R-L for FcγRIIb divided by KD of the variant for FcγRIIb
From the text: as §1

human FcγRIIb [8] = target: T1, human FcγRIIb; assay: SPR (Biacore), captured antibody, FcγR as analyte, 25 C
From the text: as §1

FcγRIIb [9] = target: T7, FcγRIIb (human, UniProt P31994 43-217, limits assumed); assay: SPR (Biacore), captured antibody, FcγR as analyte, method of Example 14
T7 construct: also called FcγIIB; FcgRIIb
T7 sequence: T1 sequence

FcγRIIIa type V = target: T8, FcγRIIIa type V (human, UniProt P08637 17-208, limits assumed); assay: as above
T8 construct: also called FcγRIIIaV; FcγRIIIa(V)

FcγRIIa type H [10] = target: T9, FcγRIIa type H (human, UniProt P12318 36-217); assay: as above
T9 construct: also called FcγRIIaH; FcγRIIa(H)
T9 sequence: T2 sequence

FcγRIIb [11] = target: T7, FcγRIIb; assay: ratio of SPR KD values of this variant (FcγRIIaH over FcγRIIb)
From the text: as §1

FcγRIIb [12] = target: T7, FcγRIIb; assay: ratio of SPR KD values of this variant (FcγRIIaR over FcγRIIb)
From the text: as §1

FcγRIa [13] = target: T10, FcγRIa (human, UniProt P12314 16-292, limits assumed); assay: SPR (Biacore), captured antibody, FcγR as analyte, method of Example 14
T10 construct: also called CD64; FcgRIa
T10 sequence (P12314 16-292 limits assumed): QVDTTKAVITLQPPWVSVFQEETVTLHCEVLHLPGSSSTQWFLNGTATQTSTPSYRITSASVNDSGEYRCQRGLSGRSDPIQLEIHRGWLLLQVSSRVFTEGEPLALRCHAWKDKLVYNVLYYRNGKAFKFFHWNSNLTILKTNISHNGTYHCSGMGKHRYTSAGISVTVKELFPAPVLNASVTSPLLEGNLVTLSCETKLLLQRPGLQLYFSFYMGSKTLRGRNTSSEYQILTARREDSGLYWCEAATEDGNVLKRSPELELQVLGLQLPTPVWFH

FcγRIIb [14] = target: T7, FcγRIIb; assay: ratio of SPR KD values; parent polypeptide is IL6R-B3/IL6R-L
From the text: as §1

FcγRIIb [15] = target: T11, FcγRIIb (human, UniProt P31994 43-217, limits assumed); assay: SPR (Biacore); ratio against the parent IL6R-B3/IL6R-L
T11 construct: Soluble analyte in Biacore; also called FcgRIIb; FcγIIB
T11 sequence: T1 sequence
Method: Next, interaction between these antibodies and FcγR was analyzed kinetically using the Biacore T100 (GE Healthcare). The interaction was measured at a temperature of 25° C. using HBS-EP+ (GE Healthcare) for the running buffer. The Series S Sensor Chip CM5 (GE Healthcare) was used after immobilizing Protein A by amine coupling. […] Antibody captured on the chip was washed by allowing 10 mM glycine-HCl (pH 1.5) to react following measurement. The chip regenerated in this manner was used repeatedly. The dissociation constant KD (mol/L) was calculated from the association rate constant ka (L/mol/s) and dissociation rate constant kd (1/s) as calculated by global-fitting the measurement results with a 1:1 Langmuir binding model using the Biacore

FcγRIIb [16] = target: T11, FcγRIIb; assay: SPR (Biacore), antibody captured on chip, FcγR as analyte, method of Example 14
FcγRIIa type H [17] = target: T12, FcγRIIa type H (human, UniProt P12318 36-217); assay: as above
T12 construct: Soluble analyte in Biacore; also called FcγRIIaH; FcγRIIa(H)
T12 sequence: T2 sequence

FcγRIIa type R = target: T13, FcγRIIa type R (human, UniProt P12318 36-217); assay: as above
T13 construct: Soluble analyte in Biacore; also called FcγRIIaR; FcγRIIa(R)
T13 chain: T2 sequence with H133R

FcγRIa [18] = target: T14, FcγRIa (human, UniProt P12314 16-292, limits assumed); assay: as above
T14 construct: Soluble analyte in Biacore; also called FcgRIa; CD64
T14 sequence (P12314 16-292 limits assumed): as above

human FcγRIIIa(F) [19] = target: T15, human FcγRIIIa(F) (human, UniProt P08637 17-208, limits assumed); assay: SPR (Biacore), captured antibody, FcgR as analyte, HBS-EP+, 25 C; bound amount corrected for captured antibody, relative to GpH7-G1d/GpL16-k0
T15 construct: also called hFcgRIIIa(F); allotype F158
T15 sequence (P08637 other isoform, or with tags, fused parts or gaps limits assumed): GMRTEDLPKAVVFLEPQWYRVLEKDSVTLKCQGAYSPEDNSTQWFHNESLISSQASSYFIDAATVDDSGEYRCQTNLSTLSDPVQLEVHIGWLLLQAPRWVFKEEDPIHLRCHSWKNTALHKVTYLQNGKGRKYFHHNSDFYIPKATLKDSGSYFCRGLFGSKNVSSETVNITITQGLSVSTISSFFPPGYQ
Method: (§2) Interaction between each modified antibody and Fcγ receptor prepared in the manner described above was analyzed using the Biacore T100 (GE Healthcare), Biacore T200 (GE Healthcare), Biacore A100 or Biacore 4000. HBS-EP+ (GE Healthcare) was used for the running buffer, and measurements were carried out at 25° C. The chips used were chips in which antigen peptides, Protein A (Thermo Scientific), Protein A/G (Thermo Scientific) or Protein L (ACTIGEN or BioVision) were immobilized on the Series S Sensor Chip CM5 (GE Healthcare) or Series S Sensor Chip CM4 (GE Healthcare) by amine coupling, or chips in which preliminarily biotinylated antigen peptides were allowed to interact and then immobilized on the Series S Sensor Chip SA (certified) (GE Healthcare). The target antibodies were captured on these sensor chips, Fcγ receptor diluted with the running buffer was allowed to interact, followed by measurement of the amount of bound antibody. The amounts bound were compared between antibodies. However, since the amount of Fcγ receptor bound depends on the amount of captured antibody, the values used for comparison were first corrected by dividing the amount of Fcγ receptor bound by the captured amount of each antibody. Through reaction with 10 mM glycine-HCl at pH 1.5, the sensor chips were regenerated by washing off antibody captured on the sensor chips and used repeatedly.

human FcγRIIIa(F) [20] = target: T16, human FcγRIIIa(F) (human, UniProt P08637 17-208, limits assumed); assay: SPR (Biacore), captured antibody, FcγR analyte; bound/captured amount vs control x100
T16 construct: also called FcgRIIIaF; FcγRIIIa allotype F158
Method: as §2

T3 sequence (P12314 16-292 limits assumed): as the sequence (P12314 16-292 limits assumed) above
T8 sequence (P08637 other isoform, or with tags, fused parts or gaps limits assumed): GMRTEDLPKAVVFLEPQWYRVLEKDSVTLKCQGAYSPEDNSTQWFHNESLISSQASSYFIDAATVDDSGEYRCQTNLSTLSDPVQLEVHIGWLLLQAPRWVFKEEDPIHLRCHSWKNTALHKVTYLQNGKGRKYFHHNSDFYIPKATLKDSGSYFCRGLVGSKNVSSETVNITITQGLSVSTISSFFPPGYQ

- Kd (human FcγRIa): 33 nM
- Kd (human FcγRIIb [4]): 34 nM
- Kd [5]: 4200 nM
- Kd [6]: 630 nM
- KD(IIb) of the parent polypeptide/KD(IIb) of the altered polypeptide (human FcγRIIb [7]): 91.2
B2: IL6R-BP200/IL6R-L (antibody, human IgG1)
heavy: QVQLQESGPGLVKPSETLSLTCAVSGHSISHDHAWSWVRQPPGEGLEWIGFISYSGITNYNPSLQGRVTISRDNSKNTLYLQMNSLRAEDTAVYYCARSLARTTAMDYWGEGTLVTVSSASTKGPSVFPLAPSSKSTSGGTAALGCLVKDYFPEPVTVSWNSGALTSGVHTFPAVLQSSGLYSLSSVVTVPSSSLGTQTYICNVNHKPSNTKVDKKVEPKSCDKTHTCPPCPAPDYLGDDSVFLFPPKPKDTLMISRTPEVTCVVVDVSHEDGEVKFNWYVDGVEVHNAKTKPREEQYNSTYRVVSVLTVLHQDWLNGKEYKCKVSNDALPRPIEKTISKAKGQPREPQVYTLPPSRDELTKNQVSLTCLVKGFYPSDIAVEWESNGQPENNYKTTPPVLDSDGSFFLYSKLTVDKSRWQQGNVFSCSVMHEALHNHYTQESLSLSP
light: DIQMTQSPSSLSASVGDRVTITCRASQDISSYLNWYQQKPGKAPKLLIYYTSRLHSGVPSRFSGSGSGTDFTFTISSLQPEDIATYYCQQGNTLPYTFGQGTKVEIK
notes: Anti-human IL-6 receptor human IgG1 variant; uncertain; copies: 2 + 2

- Kd (FcγRIIb [9]): 64 nM
- Kd (FcγRIIIa type V): 55000 nM
- Kd (FcγRIIa type H [10]): 1600 nM
- KD (IIaH)/KD (IIb) (FcγRIIb [11]): 191
- KD (IIaR)/KD (IIb) (FcγRIIb [12]): 16.7
B4: IL6R-BP179/IL6R-L (antibody, human IgG1)
heavy: B2 heavy with D235E, Y236L, D328A, R332K
light: B2 light
notes: EU numbering

- Kd (FcγRIa [13]): 96 nM
- Kd (FcγRIIa type H [10]): 1600 nM
- KD (IIaH)/KD (IIb) (FcγRIIb [11]): 290
- KD (IIaR)/KD (IIb) (FcγRIIb [12]): 18.6
B5: IL6R-BP180/IL6R-L (antibody, human IgG1)
heavy: B2 heavy with D235E, Y236L, D328K, R332K
light: B2 light
notes: EU numbering

- Kd (FcγRIIa type H [10]): 5400 nM
- KD (IIaH)/KD (IIb) (FcγRIIb [11]): 89.9
- KD (IIaR)/KD (IIb) (FcγRIIb [12]): 13
- KD(IIb) of the parent polypeptide/KD(IIb) of the altered polypeptide (FcγRIIb [14]): 53.1
B6: IL6R-BP149/IL6R-L (antibody, human IgG1)
heavy: B2 heavy with G273P, Y298D, D328A, R332K
light: B2 light
notes: EU numbering

- KD(IIb) of the parent polypeptide/KD(IIb) of the altered polypeptide (FcγRIIb [15]): 26.2 fold
- Kd (FcγRIIb [16]): 120 nM
- Kd (FcγRIIa type H [17]): 9200 nM
- Kd (FcγRIIa type R): 1700 nM
- Kd (FcγRIa [18]): 59 nM
B7: IL6R-BP214/IL6R-L (antibody, human IgG1)
heavy: B2 heavy with G273P, Y298D, R332K
light: B2 light
notes: Anti-human IL-6 receptor IgG1 Fc variant

Second part, the binder before the results:

B1: IL6R-BP084/IL6R-L (antibody, human IgG1)
heavy: B2 heavy with D235E, Y236L, D239G, G273P, V325M, D328K, R332K
light: B2 light
notes: copies: 2 + 2
- KD (IIaR)/KD (IIb) (human FcγRIIb [1]): 14.3
- Kd (human FcγRIIa type H): 2400 nM
- KD(IIb) of the parent polypeptide/KD(IIb) of the altered polypeptide (human FcγRIIb [2]): 5.1
- KD (IIaH)/KD (IIb) (human FcγRIIb [3]): 47.6

B3: IL6R-BP132/IL6R-L (antibody, human IgG1)
heavy: B2 heavy with Y236L, D239G, G273P, D328A, R332K
light: B2 light
notes: copies: 2 + 2
- KD (IIaR)/KD (IIb) (human FcγRIIb [1]): 21.5
- Kd (human FcγRIIb [8]): 270 nM
- KD(IIb) of the parent polypeptide/KD(IIb) of the altered polypeptide (human FcγRIIb [2]): 6.4
- KD (IIaH)/KD (IIb) (human FcγRIIb [3]): 61.1

B8: GpH7-B3/GpL16-k0 (antibody, human IgG1)
heavy: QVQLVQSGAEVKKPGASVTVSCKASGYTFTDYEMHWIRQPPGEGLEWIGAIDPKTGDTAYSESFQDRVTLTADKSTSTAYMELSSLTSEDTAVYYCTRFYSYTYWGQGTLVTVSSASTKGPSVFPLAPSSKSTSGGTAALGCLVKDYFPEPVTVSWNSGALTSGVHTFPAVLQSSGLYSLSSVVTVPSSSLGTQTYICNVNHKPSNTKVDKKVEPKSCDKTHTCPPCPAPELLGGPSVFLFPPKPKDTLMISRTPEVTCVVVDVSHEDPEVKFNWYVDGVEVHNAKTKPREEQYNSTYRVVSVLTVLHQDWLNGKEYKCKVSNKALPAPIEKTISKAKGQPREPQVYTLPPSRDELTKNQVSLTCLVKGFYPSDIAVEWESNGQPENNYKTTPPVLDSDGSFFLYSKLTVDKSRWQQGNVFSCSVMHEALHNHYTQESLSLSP
light: DIVMTQSPLSLPVTPGEPASISCQASESLVHSNRNTYLHWYLQKPGQSPQLLIYKVSNRFSGVPDRFSGSGSGTDFTLKISRVEAEDVGVYYCSQNTHVPPTFGQGTKVEIE
notes: Anti-glypican-3 antibody, human IgG1 constant region B3
- relative binding activity (bound amount / bound amount of GpH7-G1d/GpL16-k0 x 100) (human FcγRIIIa(F) [19]): 88

B9: GpH7-B3 D265S/GpL16-k0 (antibody, human IgG1)
heavy: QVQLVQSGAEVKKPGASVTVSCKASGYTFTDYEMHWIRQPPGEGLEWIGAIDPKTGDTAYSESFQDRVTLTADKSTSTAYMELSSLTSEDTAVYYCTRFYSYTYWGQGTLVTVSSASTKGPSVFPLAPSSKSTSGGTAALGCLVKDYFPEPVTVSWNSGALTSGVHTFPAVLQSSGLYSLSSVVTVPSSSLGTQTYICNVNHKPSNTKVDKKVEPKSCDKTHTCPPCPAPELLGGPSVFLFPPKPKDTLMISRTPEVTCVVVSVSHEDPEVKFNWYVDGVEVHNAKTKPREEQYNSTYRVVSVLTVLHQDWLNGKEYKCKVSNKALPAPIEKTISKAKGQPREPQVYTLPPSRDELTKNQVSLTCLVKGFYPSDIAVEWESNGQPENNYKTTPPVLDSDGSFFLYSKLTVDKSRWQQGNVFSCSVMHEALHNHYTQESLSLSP
light: B8 light
notes: B3 variant of anti-glypican-3 IgG1; substitution in EU numbering; also called B3 variant
- relative binding activity (human FcγRIIIa(F) [20]): 2 % of GpH7-B3/GpL16-k0

Reference: patent publication US20140105889A1 (published 2014)
